In IntAct's records for PubMed 16990850:

B1: Serine/threonine-protein kinase/endoribonuclease IRE1 (Saccharomyces cerevisiae), P32361 (parent)
chain: MRLLRRNMLVLTLLVCVFSSIISCSIPLSSRTSRRQIVEDEVASTKKLNFNYGVDKNINSPIPAPRTTEGLPNMKLSSYPTPNLLNTADNRRANKKGRRAANSISVPYLENRSLNELSLSDILIAADVEGGLHAVDRRNGHIIWSIEPENFQPLIEIQEPSRLETYETLIIEPFGDGNIYYFNAHQGLQKLPLSIRQLVSTSPLHLKTNIVVNDSGKIVEDEKVYTGSMRTIMYTINMLNGEIISAFGPGSKNGYFGSQSVDCSPEEKIKLQECENMIVIGKTIFELGIHSYDGASYNVTYSTWQQNVLDVPLALQNTFSKDGMCIAPFRDKSLLASDLDFRIARWVSPTFPGIIVGLFDVFNDLRTNENILVPHPFNPGDHESISSNKVYLDQTSNLSWFALSSQNFPSLVESAPISRYASSDRWRVSSIFEDETLFKNAIMGVHQIYNNEYDHLYENYEKTNSLDTTHKYPPLMIDSSVDTTDLHQNNEMNSLKEYMSPEDLEAYRKKIHEQISRELDEKNQNSLLLKFGSLVYRIIETGVFLLLFLIFCAILQRFKILPPLYVLLSKIGFMPEKEIPIVESKSLNCPSSSENVTKPFDMKSGKQVVFEGAVNDGSLKSEKDNDDADEDDEKSLDLTTEKKKRKRGSRGGKKGRKSRIANIPNFEQSLKNLVVSEKILGYGSSGTVVFQGSFQGRPVAVKRMLIDFCDIALMEIKLLTESDDHPNVIRYYCSETTDRFLYIALELCNLNLQDLVESKNVSDENLKLQKEYNPISLLRQIASGVAHLHSLKIIHRDLKPQNILVSTSSRFTADQQTGAENLRILISDFGLCKKLDSGQSSFRTNLNNPSGTSGWRAPELLEESNNLQCQVETEHSSSRHTVVSSDSFYDPFTKRRLTRSIDIFSMGCVFYYILSKGKHPFGDKYSRESNIIRGIFSLDEMKCLHDRSLIAEATDLISQMIDHDPLKRPTAMKVLRHPLFWPKSKKLEFLLKVSDRLEIENRDPPSALLMKFDAGSDFVIPSGDWTVKFDKTFMDNLERYRKYHSSKLMDLLRALRNKYHHFMDLPEDIAELMGPVPDGFYDYFTKRFPNLLIGVYMIVKENLSDDQILREFLYS
partner: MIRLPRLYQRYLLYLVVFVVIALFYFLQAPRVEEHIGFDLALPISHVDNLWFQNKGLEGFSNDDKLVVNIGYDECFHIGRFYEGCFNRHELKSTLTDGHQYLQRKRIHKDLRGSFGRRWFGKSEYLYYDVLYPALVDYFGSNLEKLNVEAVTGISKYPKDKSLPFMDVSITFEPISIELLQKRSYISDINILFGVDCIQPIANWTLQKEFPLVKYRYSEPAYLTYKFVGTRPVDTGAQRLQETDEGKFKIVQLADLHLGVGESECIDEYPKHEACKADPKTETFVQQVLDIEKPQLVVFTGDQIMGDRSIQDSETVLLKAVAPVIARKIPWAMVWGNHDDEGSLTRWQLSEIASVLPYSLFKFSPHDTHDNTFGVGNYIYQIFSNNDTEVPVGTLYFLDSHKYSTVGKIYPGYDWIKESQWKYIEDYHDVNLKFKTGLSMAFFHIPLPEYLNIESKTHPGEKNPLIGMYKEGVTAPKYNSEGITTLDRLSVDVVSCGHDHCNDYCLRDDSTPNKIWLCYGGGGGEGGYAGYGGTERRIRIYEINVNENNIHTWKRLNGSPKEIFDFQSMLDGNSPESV

Variants of: B1
Details: with dcr2_yeast DCR2, Q05924
S840A was tested, and the “effect of a mutation on the interaction” value was “increasing interaction”. In the case of S841A, the “effect of a mutation on the interaction” value is reported as “increasing interaction”.
